From the RNAGym collection of RNA variant scans (doi:10.1073/pnas.2313332121)

B1: TPR t1 (parent)
chain: GACCAAUCUGCCCUCAGAGCUCGAGAACAUCUUCGGAUGCAGAGGAGGCAGGCUUCGGUGGCGCGAUAGCGCCAACGUCCUCAACCUCCAAUGCAUCCCACCACAUGAUGAUGCCUGAAGAGCCUUGGUUUUUUG

Variants of: B1
Assay: polymerase ribozyme fitness, log enrichment relative to wild type (log ratio); higher = more active; in vitro selection for triplet polymerase activity
Outline: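 Mutant libraries of each subunit of a heterodimeric triplet polymerase ribozyme were built by PCR and transcribed. Each library went through one round of in vitro selection in triplicate: annealing with biotinylated primer, partner subunit and triplets, frozen incubation at −7 °C, gel excision of extended constructs, streptavidin-bead capture and RT-PCR. Input and output libraries were Illumina-sequenced; only genotypes with ≥10 input reads and ≥1 read per output were kept. Fitness is log2(genotype enrichment/wild-type enrichment), using inverse-variance-weighted replicate averages.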

Compared with GACCAAUCUGCACUCAGAGCUCGAGAACAUCUUCGGAUGCAGAGGAGGCAGGCUUCGGUGGCGCGAUAGCGCCAACGUCCUCAACCUCCAAUGCAUCCCACCACAUAAUGAUGCCUGAAGAGCCUUGGUUUUUUG, GACCAAUCUGCACUCAGAGCCCGAGAACAUCUUCGGAUGUAAAGGAGGCCGGCUUCGGUGGCGCGAUAGCGCCAACGUCCUCAACCUCCAAUGCAUCCCACCACAUGAUGAUGCCUGAAGAGCCUUGGUUUUUUG is higher in “polymerase ribozyme fitness (log ratio)” value: -5.12 for the first, -3.16 for the second.

Compared with GACCAAUCUGCACGCAGAGCUCGAGAACAUCUUCGGAUGCAGAGGAGGCAGGCUUCGGUGGCGCGAUAGCGCCAACGUCCCCAACCUCCAAUCCAUCCCACCACAUGAUGAUGCCUGAUCAGCCUUGGUUUUUUG, GACCAAUCUGCACUCAGAGCUCGAGAACAUCUUCGGAUGCAGAGGAGGCAGGCUUCGGUGGCGCGAUAGCGCCAACGUCCUCAACCUCCAAUGCAUCCCACCACAUGAUGAUGCCUCAAGAGCCUUGGUUUUUUG is lower in “polymerase ribozyme fitness (log ratio)” value: -0.255 for the first, -3 for the second.

First: GACCAAUCUGCACUCAGAGCUCGAGAACAUCUUCGGACGCAGAAGAGGCAGGCUUGGGUGGCGCGAUAGCGCCAACGUCCUCAACCUCCAAUACAUCCCACCAGAUGAUUAUGCCUGAAGAGCCUUGGUUUUUUG
Second: GACCAAUCUGCACUCAGAGCUCGAGAACAUCUUCGGAUGCAGAGGAGGCAGGCUUCGGUGGCGCGAUAGCGCCAACAUCCUCAACCUCCAAUGCAUCCCACCACAUGAUGAUGCCUGAAGAGCCUUGGUUUUUUG
The “polymerase ribozyme fitness (log ratio)” value of the first is lower: -7.49 for the first, -0.669 for the second.

Compared with GACCAAUCUGCACUCAGAGCUCGAGAACAUCUUCGGAUGCAGAGGAGGCAGGCUUCGGUGGCGCGAUAGCGCCAACGUCCUCAACCUCCAAUGCAUCCCACCACAUGAUGAUGCCUGAAGAUCAUUGGUUUUUUG, GACCAAUCUGCACUCAGAGCUCGAGAACAUCUUCGGAUGCAGAGGAGGCAGGCUUCGGUGGCGCGAUAGCGCCAACGUCCUCAACCUCCAAUACAUCCCACCACAUGAUGAUGCCUGAAGAGCCUUGGUUUUUUG is lower in “polymerase ribozyme fitness (log ratio)” value: 1.6 for the first, -1.39 for the second.

GACCAAUCUGCACUCAGAGCCCGAGAACAUCUUCGGAUGCAGAGGAGGCAGGCUUCGGUGGCGCGAUAGCGGCAACGUCCUCAACCUCCAAUGCAUCCCACCACAUGAUGAUGCCUGAAGAGCCUUGGUUUUUUG and GACCAAUCUGCACGCAGAGCUCGAGAACAUCUUCGGAUGCAGAGGAGGCAGGCUUCGGUGGCGCGAUAGCGUCAACGUCCCCAACCUCCAAUCCAUCCCACCACAUGAUGAUGCCUGAUCAGCCUUGGUUUUUUG are within 0.2 log units of each other in “polymerase ribozyme fitness (log ratio)” value: -0.431 for the first, -0.415 for the second.

First: GACCAAUCUGCACUCAGAGCUCGAGAACAUCUUCGGAUGCAGAGGAGGCAGGCUUCGGUGGCGCGAUAGCGCCAACGUCCUCAACCUCCAAUGCAUCCCACCACAUGAUGAUGCCUGAAGAGCCUUGGUUUUUUU
Second: GACCAAUCUGCACUCAGAGCUCGAGAACAUCUUCGGAUGCAGAGGAGGCAGGCUUCGGUGGCGCGAUAGCGCCAACGUCCUCAACCUCCAAUGCAUCCCACCACAUGAUGAUGCCUGAAAAGCCUUGGUUUUUUG
The “polymerase ribozyme fitness (log ratio)” value of the first is lower: -1.23 for the first, 0.0228 for the second.

First: GACCAAUCUGCACUCAGAGCUCGAGAACAUCUUCGGAUGCAGAGGAGGCAGGCUUCGGUGGCGCGAUAGCGCCAACGUCCUCAACCUCCAAUGCAUCCCACCACAUGAUGAUGCCUGAACAGCCUUGGUUUUUUG
Second: GACCAAUCUGCACUCAGAGCUCGAGAACAUCCUCGGAUGCAGAGAAGGCAGGCUUCGGUGGCGCGAUAGCGCCAACGUCCUCAACCUCCAAUGCAUCCCACCACAUGAUGAUGCCUGAAGAGCCUUGGUUUAUUG
The “polymerase ribozyme fitness (log ratio)” value of the first is higher: 0.84 for the first, -1.76 for the second.

First: GACCAAUCUGCACUCAGAGCACGAGAACAUCUUCGGAUGCAGAGGCGGCAGGCUUCGGUGGCGCGAUAGCGCAAACGUCCUCAACCGCCAAUGCAUCCCACCACAUGAUGAUGCCUGAAGAGCCUUGGUUUUUUG
Second: GACCAAUCUGCACUCAGAGCUCGAGAACAUCUUCGGAUGCAGAGGAGGCAGGCUUCGGUGGCGCGAUAGCGCCAACGUCCUCAACCUCCAAUGCAUCCCACCACAUGAUGAUCCCUGAAGAGCCUCGGUUUUUUG
The “polymerase ribozyme fitness (log ratio)” value of the first is higher: -0.648 for the first, -3.59 for the second.

First: GACCAAUCUGCACUCAGAGCUCGAGAACAUCUUCGGAUGCAGAGGAGGCAGGCCUCGGUGGCGCGAUAGCGCCAACGUCCUCAACCUCCAAUGCAUCCCACCACAUGAUGAUGCUUGAAGAGCCUUGGUUUUUUG
Second: GACCAAUCUGCACUCAGAGCUCGAGAACAUCUUCGGAUGCAGAGGAGGCAGGCAUCGGUGGCGCGAUAGCGCCAACGUCCUCAACCUCCAAGGCAUCCCACCACAUGAUGAUGCCUGAAGAGCCUUGGUUUCUUG
The “polymerase ribozyme fitness (log ratio)” value of the first is higher: -2.47 for the first, -3.79 for the second.

Going from GACCAAUCUGCACUCAGAGCUCGAGAACAUCUUCGGAUGCAGAGGAGGCAGGCUUCGGUGGCGCGAUAGCGCCAACGUCCUCAACCUCCAAUGCAUCCCACCACAUGAUUAUGCCUGAAGAGCCUUGGUUUUUUG to GACCAAUCUGCACUCAGAGCUCGAGAACAUCUUCGGAUGCAGAGGAGGCAGGCUUCGGUGGCGCGAUAGCGCCAACUUCCUCAACCUCCAAUGCAUCCCACCACAUGAUCAUGCCUGAAGAGCCUUGGUCUUUUG, the “polymerase ribozyme fitness (log ratio)” value falls from -1.4 to -3.57.

For GACCAAUCUGCACUCAGAGCUCGAGAACAUCAUGGGAUGCAGAGGAGGCAGGCUUCGGUGGCGCGAUAGCGCCAACGUCCUCAACCUCCAAUGCAUCCCACUACAUGAUGAUGCCUGAAGAGCCUUGGUUUUUUG, the “polymerase ribozyme fitness (log ratio)” value was -6.82.
